Test results as given in the supplement of paper PMC9170038.
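Also: bound reporter read as fluorescence of individual clusters on recovered sequencing chips by microscopy, with normalized cluster intensities fitted with a binding model.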

The sequences below were run on K4 kissing-loop RNA reporter (assay: apparent KD of K4 kissing-loop reporter; higher = weaker reporter binding). Settings: Eterna round: R107; input ligand: FMN 200 uM.
Protocol: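 RNA-MaP round R107: designed RNA switches with theophylline, tryptophan, arginine or FMN aptamers are transcribed on-chip within common flanks. They are titrated with a labelled K4 kissing-loop RNA reporter in RNA-MaP buffer (100 mM Tris pH 7.5, 80 mM KCl, 4 mM MgCl2), without ligand or with the indicated ligand. Median apparent KD per design.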
“UAAGAAUAAGAUGCAGUGAUGUUGCAUCUACGAGGACCGGUACGGCCGCCACUCGAGGUCCUCGAACUGCAUCAGAGGACAAUAA [(H,1)-(H,2)-(Trp1)-(Trp2)-(T)'-(H)'-(T)'']” was tested, and the “apparent KD of K4 kissing-loop reporter” value was 253 nM.
With “AAAAUAAAUAGCAGUCAUGGAGUGAUGUUCCGAGGACCGGUACGGCCGCCACUCGACCAUCAUAAGAUGGAUGGCGAAGACUGCA [#SwitchBubble 24 #K4Early]” the “apparent KD of K4 kissing-loop reporter” value was 515 nM.
With “GGACACUAGGAAACUAGUGUCUCAACUGAAGGAGCGUGAAUAGUCACAGGUAGGUCGCAGUUUGUUAGUGAUGUUGACAUGAGUU [#16 K4 Arginine A Same State]” the “apparent KD of K4 kissing-loop reporter” value was 302 nM.
With “UGAUACCAGACGGCCGCCACUGCACCAGUCAAUGACUGAGUGCGGUAGUGCUCAGUGAUGUUGAGUAGGACCGGGUCUGGUAUCU [Mod of Eli's TrypBX 8 v3]” the “apparent KD of K4 kissing-loop reporter” value was 148 nM.
With “UUUAUUAAGACGGCCGCCACUGAAUCAUAGUGAUGUUAUGAUAUAAUUUUAGUGAUUUUGAUUAGCAGGACCGGGUCAAUUAUUA [#26 K4 Tryptophan B Exclusion]” the “apparent KD of K4 kissing-loop reporter” value was 165 nM.
“GGUGACGGCCAGGAGUGAUGUAUAGAAUAGCGAGGACCGGUACGGCCGCCACUCGUGAAGAAAAGGGAGUGAUGUUCCGUAAUGG [Kazoo B]” was tested, and the “apparent KD of K4 kissing-loop reporter” value was 380 nM.
With “CGCGCGCGCUGAGAGGCGCGCGCGAAUGAUACCAGUAUAUAAGAAUACCCUUGGCAGCAUAAGAAAGAUAUAGUGAUGUUGUAUA [SSTheophA.D]” the “apparent KD of K4 kissing-loop reporter” value was 75.3 nM.
With “AAGCAGUCACUCGAACCCAUCGAAGAUGGGCGAGGACCGGUACGGCCGCCACUCGGAGUGAUGUUCCGAAGACUGCAAAAUAAAA” the “apparent KD of K4 kissing-loop reporter” value was 329 nM.
In the case of “GGGCAUCAGGCUGAUACCAGUGAUAAAGGAUAAGAGACAGGGAGUGAUGUUCCCUUUACCCACCCUUGGCAGCAGUUUAAGUUUG [Exclusion Theophylline B GF 16]”, the “apparent KD of K4 kissing-loop reporter” value is reported as 92.8 nM.
With “GAGAACUCUUACGAUACCAGCCGGAGUGAUGUUCCGUGCUUGGACGUAGUAACCCGCACCGGCCCUUGGCAGCGUGGAUCCUAUG [Biorar]” the “apparent KD of K4 kissing-loop reporter” value was 86.1 nM.
In the case of “UCCUGCAAUCUGCCACGAAAGUGGAUUGAUACCAGAGUCGAAAGACUCCCUUGGCAGCGAGUGAUGUUCGAAGCAGGUAAAUAAA”, the “apparent KD of K4 kissing-loop reporter” value is reported as 99.4 nM.
“UUAGAUCAAAGAUCAGUCUUAUUGAGAGAACGAGGACCGGUACGGCCGCCACUCGAGUGAUGUUCGAGAACUCUCUUGACAAAUU [AK1 EXC Tryptophan A]” was tested, and the “apparent KD of K4 kissing-loop reporter” value was 158 nM.
“UGAUUUAACUGAAGGAGCGGCAAUUGAUAAGUAAAUAUAGUGAUGUUAUAUAAGAUAGAGAGCCAGGUAGGUCGCAGAGGUAUGA [ExArgB.L]” was tested, and the “apparent KD of K4 kissing-loop reporter” value was 193 nM.
With “UUUUUCCCGCAGGAUACCAGCAACCAAACGUCAUGCGAAGUGAUGUUUCGCUUACGGUAGUGCCCUUGGCAGCCUUCGGUAGGGU [thingy]” the “apparent KD of K4 kissing-loop reporter” value was 196 nM.
With “AGAACUGUCUGAGAUACCAGCCAUAGGAGUGAUGUUCCUAGCUCCACAAAGUGGAGCCAUAGCCCUUGGCAGCUCAGACAGUUCA [Omei KL Theo B SS A v7]” the “apparent KD of K4 kissing-loop reporter” value was 1040 nM.
“UGUCUUUUUUUGAUGUUUUUUGUAUAAUGGCAGGAUAUCGUAGAUGCGAGAAGGGCUUUUAUGCGUUAUGAGUGAUGUUUGUAGG [vjjbvmullin]” was tested, and the “apparent KD of K4 kissing-loop reporter” value was 329 nM.
“GCAAGGCUACAAGGAUAUGCGCGAACCUACCGCCAAGCGGCUACCGGUGAGUCAGUGAUGUUGGCUGCAGAAGGUGUGAUUGAGC [theeternabot_sameState_KL_FMN_B_45]” was tested, and the “apparent KD of K4 kissing-loop reporter” value was 383 nM.
With “UCGCAUUAACCGGAUACCAGCUUAGUGGGAUCUUCAAUCCGACAGAAAGUGAUGUUUUCUAGCCCUUGGCAGCCGAGAUUAUCAC [theeternabot_sameState_KL_Theo_B_50]” the “apparent KD of K4 kissing-loop reporter” value was 231 nM.
With “GGGAACUCUUACGAUACCAGCCGGAGUGAUGUUCCGCGCUUGGACGUAGUAACCCGCACCGGCCCUUGGCAGCGUGGAUCUUAUA [Esbedi]” the “apparent KD of K4 kissing-loop reporter” value was 89.9 nM.
For “GGCGCCAGGAAAGGAUAUCUAAGUCUAUUAUCAAGAAUUGCCUCAAGAUCGGAGUGAUGUUCCCAGAGAGAAGGUUCUAUCCGCU [theeternabot_exclusion_KL_FMN_B_38]”, the “apparent KD of K4 kissing-loop reporter” value was 170 nM.
In the case of “UAAUGUGGCACAGGAUAUACUGAUUGGAGUGAUGUUCCAAACAUGAACAAGAGACUUUUACAAGAAGUAGAAGGGUGUUAGAUAU [Exclusion FMN B GF 19]”, the “apparent KD of K4 kissing-loop reporter” value is reported as 269 nM.
With “GGAUAGGACAGAGGAUAUGGUAGUGAUGUUACCAAACUGGUUAUCAAUGUUAGAAAAUUGACAAAACCAGAAGGCUGUCCUAUCG [KL-XFMN-B15]” the “apparent KD of K4 kissing-loop reporter” value was 129 nM.
In the case of “AUUUAAUGUAUAGAUUAUAUACAUUAUUCAGAGGAUAUGCAUUGAAGCAGAAGGCUGGGUGUAGUGAUGUUGCAGUUUUAAUUUA [whbob_SS_FMNA__2th173]”, the “apparent KD of K4 kissing-loop reporter” value is reported as 150 nM.
With “GGCACUACAGCGGCCGCCACUGUUUAGUCCAUCGCUUGCGAGUGAUGUUCGUAGGUACUGCAGCUCAGGACCGGGCUGUCCUUAC [theeternabot_sameState_KL_Trp_B_34]” the “apparent KD of K4 kissing-loop reporter” value was 475 nM.
In the case of “GCCUACGAUGCAGGAUAUAGCUCGCGAGUGAUGUUCGCAGCUGUAUGGUAGUAAGCUUCCACGUGUCUAGAAGGGCAUCGUAGGC [#01 K4 FMN B Exclusion]”, the “apparent KD of K4 kissing-loop reporter” value is reported as 131 nM.
In the case of “AAAUAAAGCAGUCACCCAGUGAUGUUGGAAGGAGCGUGCGAAAGCACAGGUAGGUCGCCGAUAAGGACAAAGUCCAGUGGCUGCA [#SwitchBubble 28 #K4Early]”, the “apparent KD of K4 kissing-loop reporter” value is reported as 458 nM.
